T1: human CXCL13 (human, UniProt O43927 23-109)
T1 construct: also called huCXCL13; rhCXCL13
T1 sequence (looked up): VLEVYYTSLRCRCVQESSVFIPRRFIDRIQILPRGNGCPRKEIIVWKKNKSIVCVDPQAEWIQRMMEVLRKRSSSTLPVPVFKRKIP

T2: cynomolgus CXCL13 (cynomolgus, UniProt H6WS58 23-109)
T2 construct: also called cynoCXCL13; Cyno CXCL13
T2 sequence: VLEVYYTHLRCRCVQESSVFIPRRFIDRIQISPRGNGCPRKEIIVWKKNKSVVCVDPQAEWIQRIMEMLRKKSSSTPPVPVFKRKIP

T3: mouse CXCL13 (mouse, UniProt O55038 22-109)
T3 construct: also called rmCXCL13
T3 sequence (looked up): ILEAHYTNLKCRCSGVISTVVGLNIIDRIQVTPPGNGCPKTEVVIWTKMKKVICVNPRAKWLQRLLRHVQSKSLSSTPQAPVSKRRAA

B1: 1H3A11 (antibody, V domains shown)
VH: EVQLVESGGGLVKPGGSLKLSCAASGFTFSSYAMSWVRQTPEKRLEWVATISDGGSDTYYPDNVKGRFTISRDNAKNNLYLQMSHLKSEDTAMYYCARDYYGSSYEDYAMDYWGQGTSVTVSS
VL: DIQMTQSPSSLSASLGGKVTITCKASQDINKYITWYQHKPGKGPRLLIHYTSTLQPGIPSRFSGSGSGRDYSFSISNLEPEDIATYYCLQYDNLYTFGGGTKLEIK
notes: Hybridoma mAb
B2: 329F2E1 (antibody, V domains shown)
VH: EVKLLQSGGGLVQPGGSLKLSCAASGIDFSRYWMSWVRRAPGKGLEWIGEINPDSSTINYAPSLKDKFIISRDNAKNTLYLQMSKVRSEDTALYYCARQDDYDYYAMDYWGQGTSVTVSS
VL: DIVMTQSHKFMSTSVGDRVSITCKASQDVSTGVAWYQQKPGQSPKLLIYSASYRYTGVPDRFTGSGSRTDFTFTISSVQTEDPAVYYCHQYYTIPLTFGAGTELELK
notes: Hybridoma mAb
B3: 71F4A3 (antibody, V domains shown)
VH: EVKLLQSGGGLVQPGGSLKLSCAASGIDFSRYWMSWVRRAPGKGLEWIGEINPDSSTINYAPSLKDKFIISRDNAKNTLYLQMSKVRSEDTALYYCARQDDYEYYAMDYWGQGTSVTVSS
VL: DIVMTQSHKSMSTSVGDRVSITCKASQDVNTGVAWYRQKPGQSPKLLIYSASYRYTGVPDRFTGSGSGTDFTFTISSVQAEDLAVYYCQQYYSTPLTFGAGTKLELK
notes: Hybridoma mAb
B4: 368D6D10 (antibody, V domains shown)
VH: DVQLQESGPGLVKPSQSLSLTCTVTGYSITSDYAWNWIRQFPGNKLEWMGYISYSGSTSYNPSLKSRISITRDTSKNQFFLQLNSVTTEDTATYYCVAGHFDYWGQGTTLTVSS
VL: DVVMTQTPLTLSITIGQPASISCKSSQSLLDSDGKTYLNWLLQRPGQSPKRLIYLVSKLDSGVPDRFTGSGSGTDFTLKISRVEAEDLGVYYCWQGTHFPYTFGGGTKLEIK
notes: Hybridoma mAb
B5: 348E12F12 (antibody, V domains shown)
VH: DVQLQESGPGLVKPSQSLSLTCTVTGYSITSDYAWNWIRQFPGNKLEWMGYISYSGDTSYNPSLKSRISITRDTSKNQFFLQLNSVTTEDTATYYCVAGHFDYWGQGTTLTVSS
VL: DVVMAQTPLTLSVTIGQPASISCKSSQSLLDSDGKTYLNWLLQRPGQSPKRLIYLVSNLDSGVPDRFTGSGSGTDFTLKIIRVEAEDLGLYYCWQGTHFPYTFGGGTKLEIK
notes: Hybridoma mAb
B6: 353F9C4 (antibody, V domains shown)
VH: DVQLQESGPGLVKPSQSLSLTCTVTGYSITSDYAWSWIRQFPGNKLEWMGYITYSDSTSYNPSLKSRISITRDTSKNQFFLQLNSVTAEDTATYYCAAGHFDYWGQGTILTVSS
VL: not shown
notes: Hybridoma mAb
B7: 355A1F6 (antibody, V domains shown)
VH: DVQLQESGPGLVKPSQSLSLTCTVTGYSITSDYAWSWIRQFPGNKLEWMGYISYSDSTSYNPSLKSRISITRDTSKNQFFLQLNSVTAEDTATYYCAAGHFDYWGQGTILTVSS
VL: not shown
notes: Hybridoma mAb
B8: 367F1C2 (antibody, V domains shown)
VH: DVQLQESGPGLVKPSQSLSLTCTVTGYSITSDYAWNWIRHFPGNKLEWMGYISYTGSSSYNPSLKSRISITRDTSKNQFFLQLNSVTSEDTATYYCVAGHFDYWGPGTTLTVSS
VL: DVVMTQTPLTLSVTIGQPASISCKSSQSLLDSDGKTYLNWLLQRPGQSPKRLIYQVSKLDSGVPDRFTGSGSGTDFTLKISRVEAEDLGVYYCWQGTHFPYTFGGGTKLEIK
notes: Hybridoma mAb
B9: 397C3B3 (antibody, V domains shown)
VH: DVQLQESGPGLVKPSQSLSLTCTVTGYSITSDYAWNWIRQFPGNKLEWMGYISYSGSTSYNPSLKSRISINRDTSKNQFFLQLNSVTTEDTATYYCVAGHFDYWGQGTTLTVSS
VL: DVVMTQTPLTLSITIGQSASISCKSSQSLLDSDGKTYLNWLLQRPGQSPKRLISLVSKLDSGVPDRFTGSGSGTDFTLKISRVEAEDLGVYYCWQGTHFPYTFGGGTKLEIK
notes: Hybridoma mAb
B10: 348B10B1 (antibody, V domains shown)
VH: EVQLQQSGPELVKPGASVKISCKTSGYTFTEYIMHWVKQSHGRSLEWIGGINPDNGDTTYNQKFKGKATLTVDKSSTTAYMELRSLTSEDSAVYYCAGGVLDYWGQGTSVTVSS
VL: not shown
notes: Hybridoma mAb
B11: 339H3E2 (antibody, V domains shown)
VH: EVQLQQSGPELVKPGASVKISCKTSGYTFTEYIMHWVKQSHGRSLEWIGGINPNNGGTTYNQKFKGKATLTVDKSSSTAYMELRSLTSEDSAVYYCAGGVMDYWGQGTSVTVSS
VL: not shown
notes: Hybridoma mAb
B12: 360A3D4E3 (antibody, V domains shown)
VH: EVQLQQSGPELVKPGASVKISCKTSGYTFTEYIMHWVKQSHERSLEWIGGIHPDNGDTTYNQKFTGKATLTVDKSSTTAYMELRSLTSEDSAVYYCAGGVLDYWGQGTSVTVSS
VL: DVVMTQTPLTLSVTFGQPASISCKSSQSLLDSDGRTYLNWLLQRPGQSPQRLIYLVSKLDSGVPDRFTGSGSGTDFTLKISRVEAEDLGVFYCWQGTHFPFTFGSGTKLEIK
notes: Hybridoma mAb
B13: 21H12D9-VH1VL1 (Fab, V domains shown)
VH: QVQLVQSGAEVKKPGASVKVSCKASGYTFTDYYMNWVRQAPGQGLEWMGVINPNNGGTTYKEKFKGRVTMTRDTSISTAYMELSRLRSDDTAVYYCARDDYDAGYWGQGTLVTVSS
VL: DIQMTQSPSSVSASVGDRVTITCKASQNVDTAVAWYQQKPGKAPKLLIYSASHRYTGVPSRFSGSGSGTDFTLTISSLQPEDFATYYCQQYTDFPLTFGQGTRLEIK
notes: Humanized Fab, human gamma 1 and kappa constant domains; also called 21VH12D9-VH1VL1
B14: 21H12D9-VH1VL2 (Fab, V domains shown)
VH: QVQLVQSGAEVKKPGASVKVSCKASGYTFTDYYMNWVRQAPGQGLEWMGVINPNNGGTTYKEKFKGRVTMTRDTSISTAYMELSRLRSDDTAVYYCARDDYDAGYWGQGTLVTVSS
VL: DIQMTQSPSSVSTSVGDRVTITCKASQNVDTAVAWYQQKPGKAPKLLIYSASHRYTGVPSRFSGSGSGTDFTLTISSLQPEDFATYYCQQYTDFPLTFGQGTRLEIK
notes: Humanized Fab, human gamma 1 and kappa constant domains; also called 21VH12D9-VH1VL2
B15: 21H12D9-VH3VL3 (Fab, V domains shown)
VH: QVQLVQSGAEVVKPGASVKVSCKASGYTFTDYYMNWVRQAPGQGLEWIGVINPNNGGTTYKEKFKGRATLTVDTSISTAYMELSRLRSDDTAVYYCARDDYDAGYWGQGTLVTVSS
VL: DIQMTQSPSSVSTSVGDRVTITCKASQNVDTAVAWYQQKPGKAPKLLIYSASHRYTGVPSRFSGSGSGTDFTLTISSVQPEDFATYYCQQYTDFPLTFGQGTRLEIK
notes: Humanized Fab, human gamma 1 and kappa constant domains; also called 21VH12D9-VH3VL3
B16: 178B2E8 (antibody, V domains shown)
VH: EVKLVESEGGLVQPGSSMKLSCTASGFTFTDYYMTWVRQVPEKGLEWVANINYDGSRTNYLDSLKSRFIISRDNAKNILYLQMSSLKSEDTATYYCARDGNYHFYGMDYWGQGTSVTVSS
VL: DFVLTQSHKFMSTSVGDRVSITCKASQDVSTAVAWYQQKPGQSPQLLIYWASTRHTGVPDRFTGSGSGTDYTLTISSVQAEDLALYYCQQHYSTPWTFGGGTKLEIK
notes: Hybridoma mAb

Key:
human CXCL13 [1] = target: T1, human CXCL13; experiment: cell-based blocking ELISA, CXCL13 to CHO-K1-CXCR5
Procedure: Splenocytes were electro-fused with mouse myeloma cell line SP2/0 cells and plated into 96-well culture plate. The hybridoma supernatants were tested by ELISA binding assay for anti-human CXCL13 binders. Supernatants of positive binding clones were screened for function in blocking of human CXCL13 binding to its […] CXCR5 by Cell-based receptor blocking ELISA assay. Briefly, 5×10⁴ CHO-K1-CXCR5 cells were plated in 96-well plate with 100 μl of culture medium and incubated at 37° C. overnight. Cells were fixed with 100 μl of 2% PFA at RT for 1 hr after washing with PBS for 1 time. Blocking was done with 1% BSA in PBST for 1 hr at RT. Supernatants were diluted with PBS and pre-incubated with equal volume of 0.3 μg/ml human CXCL13 for 30 min at RT. 100 μl of antibody-antigen complex was then transferred into each cell wells for 30 min at RT. The samples were washed with 1×PBST for 3 times and 100 μl of 3 μg/ml of human Mab5261 antibody was add into each well to capture human CXCL13 and anti-human Fc-HRP was used to indirectly detect human CXCL13 when it bound to CHO-K1-CXCR5 cells. […] Reading was done at […].
Those antibodies were purified from hybridoma supernatants by binding with Protein G column and characterized by ELISA binding assays and cell-based blocking ELISA assays. […] 11/20 clones bound to both human CXCL13 and cynomolgus CXCL13 appeared to completely block human CXCL13 to human CXCR5. 11 blockers bound to both huCXCL13 and cynoCXCL13 were produced as chimeric human IgG1 antibodies for further Characterization.

cynomolgus CXCL13 = target: T2, cynomolgus CXCL13; experiment: ELISA, coated antigen
human CXCL13 [2] = target: T1, human CXCL13; experiment: ELISA, coated antigen
mouse CXCL13 = target: T3, mouse CXCL13; experiment: ELISA, coated antigen
human CXCL13 [3] = target: T1, human CXCL13; experiment: SPR Biacore 8K, Fab over immobilised CXCL13
Procedure: Among all humanized Fab samples, 71F4A3-VH2VL1, 71F4A3-VH1VL1 (Hz71F4), 71F4A3-VH1VL2, 71F4A3-VH3VL1, 411A11E9-VH1VL4, 411A11E9-VH3VL4, 411A11E9-VH2VL4, 411A11E9-VH3VL2, 411A11E9-VH1VL2, 21H12D9-VH1VL1, 21H12D9-VH2VL2, 21H12D9-VH3VL3, 21H12D9-VH1VL2, 64C10G1-VH1VL3, 64C10G1-VH1VL4, 64C10G1-VH1VL1, 64C10G1-VH1VL2 were selected to test affinity by Biacore 8K. 10 mM HEPES, 150 mM NaCl, 3 mM EDTA, 0.05% Tween-20, pH 7.4 served as running buffer and 10 mM glycine-HCl, pH2.0 served as regeneration buffer. CXCL13 protein were immobilized on Sensor Chip CM5 using amine coupling method (immobilization level ˜250RU). The serial concentrations of Fab (0-20 nM) were injected over immobilized CXCL13 at the flow rate of 30 μl/min. The dissociation phases were 600s.

human CXCL13 [4] = target: T1, human CXCL13; experiment: SPR Biacore, off-rate ranking of Fabs

Row | Binder | EC50 (cynomolgus CXCL13) [µg/mL] | EC50 (human CXCL13 [2]) [µg/mL] | binding result (mouse CXCL13) | other results
1 | B1 | 0.145 | 0.0633 | no binding | IC50 (human CXCL13 [1]): 10.1 µg/mL
2 | B2 | 0.0125 | 0.0166 | no binding | IC50 (human CXCL13 [1]): 0.615 µg/mL
3 | B3 | 1.01 | 0.0266 | no binding | IC50 (human CXCL13 [1]): 3.02 µg/mL
4 | B4 | 0.14 | 0.0864 | no binding | 
5 | B5 | 0.0765 | 0.0636 | no binding | 
6 | B6 | 0.172 | 0.135 | no binding | 
7 | B7 | 0.154 | 0.0943 | no binding | 
8 | B8 | 0.0557 | 0.0668 | no binding | 
9 | B9 | 0.401 | 0.344 | no binding | 
10 | B10 | 0.0166 | 0.0124 | no binding | 
11 | B11 | 0.0319 | 0.0388 | no binding | 
12 | B12 | 0.0178 | 0.00664 | no binding | 
13 | B13 |  |  |  | Kd (human CXCL13 [3]): 1.23 nM; koff (human CXCL13 [3]): 0.00203 s⁻¹; kon (human CXCL13 [3]): 1.66e+06 M⁻¹ s⁻¹; Kd (human CXCL13 [4]): 1.33 nM; koff (human CXCL13 [4]): 0.00323 s⁻¹; kon (human CXCL13 [4]): 2.42e+06 M⁻¹ s⁻¹
14 | B14 |  |  |  | Kd (human CXCL13 [3]): 1.19 nM; koff (human CXCL13 [3]): 0.00171 s⁻¹; kon (human CXCL13 [3]): 1.44e+06 M⁻¹ s⁻¹; Kd (human CXCL13 [4]): 1.99 nM; koff (human CXCL13 [4]): 0.000757 s⁻¹; kon (human CXCL13 [4]): 380000 M⁻¹ s⁻¹
15 | B15 |  |  |  | Kd (human CXCL13 [3]): 1.22 nM; koff (human CXCL13 [3]): 0.00182 s⁻¹; kon (human CXCL13 [3]): 1.49e+06 M⁻¹ s⁻¹; Kd (human CXCL13 [4]): 1.47 nM; koff (human CXCL13 [4]): 0.00207 s⁻¹; kon (human CXCL13 [4]): 1.41e+06 M⁻¹ s⁻¹
16 | B16 |  | 0.42 | no binding | binding result (cynomolgus CXCL13): no binding
